Here are results for four molecules from US20140294819A1 (NVIP, published 2014).

The target in experiment [1] is canine CD20 cyclic (oxidised, disulphide-bonded) peptide SEQ ID NO:2 (canine). Nature of the experiment: ELISA, biotinylated oxidised peptide on streptavidin plate. Conditions: scale: fold of the binding to human CD20 peptide.
In experiment [2] the target is T1, feline CD20 cyclised peptide SEQ ID NO:4 (feline, cyclised by a disulphide bond between the two cysteine residues).
T1 construct: also called feline CD20 peptide
T1 peptide: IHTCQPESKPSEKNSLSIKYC
Nature of the experiment: ELISA on cyclised CD20 peptide. For orientation: In an ELISA, binding on a coated surface is turned into a signal by an enzyme label.

Experiment [3] deals with T2, canine CD20 cyclic (oxidised, disulphide-bonded) peptide SEQ ID NO:2 (canine, disulphide bond between the two cysteine residues (corresponding to positions 167 and 183); N-terminal biotin in the streptavidin-plate assays).
T2 construct: Chemically synthesised and oxidised; also called C20; caCD20 peptide
T2 peptide: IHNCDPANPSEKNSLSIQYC
The experiment in a line: ELISA on cyclised CD20 peptide.

Experiment [4] deals with T3, human CD20 cyclic (oxidised) peptide SEQ ID NO:3 (human, disulphide bond between the two cysteine residues; biotinylated).
T3 construct: also called H20; human CD20 cyclic peptide
T3 peptide: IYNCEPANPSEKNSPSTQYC
Nature of the experiment: ELISA on cyclised CD20 peptide.

Experiment [5] deals with T4, murine CD20 cyclic (oxidised) peptide SEQ ID NO:6 (murine, disulphide bond between the two cysteine residues; biotinylated).
T4 construct: also called M20; mouse CD20 peptide
T4 peptide: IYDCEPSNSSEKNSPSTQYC
Nature of the experiment: ELISA on cyclised CD20 peptide.

The target in experiment [6] is T2, canine CD20 cyclic (oxidised, …). Nature of the experiment: ELISA, CHO supernatant on canine CD20 cyclic peptide, dose response. The source says: This confirms the data with Bly-1 above (and by extension its humanised variant GA101) that this is a further example of a Type II anti-human CD20 monoclonal antibody that also binds to a common epitope on canine CD20, thus validating the use of the structurally constrained shared epitope on canine CD20 as a novel target for monoclonal antibodies.

Experiment [7] concerns the target T1, feline CD20 cyclised peptide SEQ ID NO:4. The experiment in a line: ELISA, purified recombinant antibody on cyclic CD20 peptide. From the text: (§1) The RA2 and RF2 variable heavy and light chain sequences (SEQ ID NO:23-26) were rebuilt as IgG2a/kappa antibodies by oligonucleotide-based gene synthesis, cloned into pcDNA3.3 vectors and co-expressed in appropriate pairs in CHO cells. The supernatant expressed antibodies were purified by Protein A chromatography and tested for binding by CD20 peptide ELISA (FIG. 11). Both purified recombinant forms of mouse RA2 and RF2 bound strongly to cyclic canine and feline CD20 peptides, and also to mouse and human CD20 peptides (the binding of RA2 to human CD20 peptide was more pronounced than with the corresponding hybridoma supernatant in FIG. 9).

For experiment [8], the target named is T2, canine CD20 cyclic (oxidised, …). The experiment is described as above.
Excerpt: as §1

The target in experiment [9] is T3, human CD20 cyclic (oxidised) peptide …. Described as above.
Excerpt: as §1

In experiment [10] the target is T4, murine CD20 cyclic (oxidised) peptide …. The description is as above.
Excerpt: as §1

Take “B1-H299 (Beckmann Coulter) murine Type II anti-human CD20 monoclonal antibody”: in [1], the binding relative to the binding to human CD20 peptide came out at 0.167.

B1: caninised RF2, HCC isotype (antibody)
heavy: EVQLVQSGGGLVKPTESLTISCVISGFSLTSYGVHWVRQSPGKGLEWLGVIWSGGSIDYNAAFISRLSISKDNSKSTVFIRMNSLRADDTAIYYCARGPRKFYYFGMDYWGQGTSVTVSSASTTAPSVFPLAPSCGSQSGSTVALACLVSGYIPEPVTVSWNSVSLTSGVHTFPSVLQSSGLYSLSSMVTVPSSRWPSETFTCNVAHPATNTKVDKPVAKECECKCNCNNCPCPGCGLLGGPSVFIFPPKPKDILVTARTPTVTCVVVDLDPENPEVQISWFVDSKQVQTANTQPREEQSNGTYRVVSVLPIGHQDWLSGKQFKCKVNNKALPSPIEEIISKTPGQAHQPNVYVLPPSRDEMSKNTVTLTCLVKDFFPPEIDVEWQSNGQQEPESKYRMTPPQLDEDGSYFLYSKLSVDKSRWQRGDTFICAVMHEALHNHYTQISLSHSPGK
light: DIVMTQTPLSLSVSQEEEASISCRSSQNIVHSNGNTYVEWYLQKPGQSPKLLIYKVSNRFSGVPDRFSGSGSGTDFTLKISRVEAEDAGVYYCFQGSHVPLTFGAGTKLELKRNDAQPAVYLFQPSPDQLHTGSASVVCLLNSFYPKDINVKWKVDGVIQDTGIQESVTEQDKDSTYSLSSTLTMSSTEYLSHELYSCEITHKSLPSTLIKSFQRSECQRVD
notes: also called caRF2-C
B1: the binding result in experiment [2], in experiment [3], in [4] and in experiment [5] was “binds” throughout.

B2: recombinant caninised GA101 (full length canine antibody) (antibody, V domains shown)
VH: EVQLVQSGGEVVKPGGSLKVSCVASGYAFSYSWINWVRQAPGQGMEWVGRIFPGDGDTDYNGKFKGRVTITRDNSKSTAYLELSSLRSEDTAVYYCARNVFDGYWLVYWGQGTLVTVSS
VL: DIVMTQTPLSLSVTPEEPASISCRSSKSLLHSNGITYLYWYLQKPGQSPQLLIYQMSNLVSGVPDRFSGSGSGTDFTLKISRVEAEDVGVYYCAQNLELPYTFGAGTKVEIKR
notes: Tested as CHO cell supernatant
Turning to B2, in experiment [6], the binding result is “binds”.

B3: recombinant mouse RF2 (IgG2a/kappa) (antibody)
heavy: QVQLKQSGPGLVPPSQSLSITCTISGFSLTSYGVHWVRQSPGWGLEWLGVIWSGGSIDYNAAFISRLSISKDNSKSQVFIKMNSLQADDTAIYYCARGPRKFYYFGMDYWGQGTSVTVSSAKTTAPSVYPLAPVCGDTTGSSVTLGCLVKGYFPEPVTLTWNSGSLSSGVHTFPAVLQSDLYTLSSSVTVTSSTWPSQSITCNVAHPASSTKVDKKIEPRGPTIKPCPPCKCPAPNLLGGPSVFIFPPKIKDVLMISLSPIVTCVVVDVSEDDPDVQISWFVNNVEVHTAQTQTHREDYNSTLRVVSALPIQHQDWMSGKEFKCKVNNKDLPAPIERTISKPKGSVRAPQVYVLPPPEEEMTKKQVTLTCMVTDFMPEDIYVEWTNNGKTELNYKNTEPVLDSDGSYFMYSKLRVEKKNWVERNSYSCSVVHEGLHNHHTTKSFSRTPGK
light: DVVMTQTPLSLPVSLGDQASISCRSSQNIVHSNGNTYVEWYLQKPGQSPKLLIYKVSNRFSGVPDRFSGSGSGTDFTLKISRVEAEDLGVYYCFQGSHVPLTFGAGTKLELKRADAAPTVSIFPPSSEQLTSGGASVVCFLNNFYPKDINVKWKIDGSERQNGVLNSWTDQDSKDSTYSMSSTLTLTKDEYERHNSYTCEATHKTSTSPIVKSFNRNEC
notes: also called muRF2; mouse IgG2a variant of RF2
For B3, the binding result in experiment [7], in [8], in experiment [9] and in experiment [10] was “binds” each time.
